# Measurements: paper PMC9482650, “Quantitative fragmentomics allow affinity mapping of interactomes” (Nature Communications, 2022)
# T1: APBA1_2, Q02410
# T1 sequence (Q02410 742-832, limits assumed, looked up): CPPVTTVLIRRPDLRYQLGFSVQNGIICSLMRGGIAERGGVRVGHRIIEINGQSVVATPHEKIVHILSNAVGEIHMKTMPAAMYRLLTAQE
# T2: GRIP1_3, Q9Y3R0
# T2 sequence (Q9Y3R0 247-346, limits assumed, looked up): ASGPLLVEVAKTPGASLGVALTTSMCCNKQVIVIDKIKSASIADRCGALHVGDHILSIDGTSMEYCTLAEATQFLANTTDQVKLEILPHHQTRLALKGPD
# T3: GRIP1_4, Q9Y3R0
# T3 sequence (Q9Y3R0 467-571, limits assumed, looked up): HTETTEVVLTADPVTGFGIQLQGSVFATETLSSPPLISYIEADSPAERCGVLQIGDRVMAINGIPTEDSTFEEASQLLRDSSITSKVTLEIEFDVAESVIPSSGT
# T4: LIN7B, Q9HAP6
# T4 sequence (Q9HAP6 88-185, limits assumed, looked up): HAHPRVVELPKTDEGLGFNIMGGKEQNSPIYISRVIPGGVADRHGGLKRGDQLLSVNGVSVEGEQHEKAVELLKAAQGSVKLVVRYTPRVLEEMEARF
# T5: MPP6, Q9NZW5
# T5 sequence (Q9NZW5 125-219, limits assumed, looked up): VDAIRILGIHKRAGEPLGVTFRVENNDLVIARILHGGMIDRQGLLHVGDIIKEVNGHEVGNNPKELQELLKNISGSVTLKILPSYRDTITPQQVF
# T6: MPP7, Q5T2T1
# T6 sequence (Q5T2T1 134-230, limits assumed, looked up): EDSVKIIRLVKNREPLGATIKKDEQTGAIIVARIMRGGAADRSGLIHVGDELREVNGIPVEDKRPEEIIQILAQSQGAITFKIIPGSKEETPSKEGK
# T7: NHERF3_4, Q5T2W1
# T7 sequence (Q5T2W1 373-468, limits assumed, looked up): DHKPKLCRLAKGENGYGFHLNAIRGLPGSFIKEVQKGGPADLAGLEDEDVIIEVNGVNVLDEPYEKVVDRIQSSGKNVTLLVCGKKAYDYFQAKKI
# T8: PCLO, Q9Y6V0
# T8 sequence (Q9Y6V0 4491-4600, limits assumed, looked up): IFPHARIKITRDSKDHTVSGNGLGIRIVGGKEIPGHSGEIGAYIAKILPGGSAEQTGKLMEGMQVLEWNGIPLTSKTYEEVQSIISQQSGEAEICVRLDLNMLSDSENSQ
# T9: PDZD2_2, O15018
# T9 sequence (O15018 329-429, limits assumed, looked up): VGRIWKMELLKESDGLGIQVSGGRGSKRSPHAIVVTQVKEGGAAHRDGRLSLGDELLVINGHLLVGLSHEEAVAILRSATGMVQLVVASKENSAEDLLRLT
# T10: PDZD7_3, Q9H5P4
# T10 sequence (Q9H5P4 857-944, limits assumed, looked up): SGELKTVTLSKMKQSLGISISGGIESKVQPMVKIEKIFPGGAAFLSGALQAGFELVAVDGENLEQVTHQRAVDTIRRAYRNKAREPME
# T11: RADIL, Q96JH8
# T11 sequence (Q96JH8 971-1071, limits assumed, looked up): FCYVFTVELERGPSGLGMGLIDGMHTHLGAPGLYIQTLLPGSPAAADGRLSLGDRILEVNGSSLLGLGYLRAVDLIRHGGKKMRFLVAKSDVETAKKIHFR
# Legend:
# Assay in all cases: holdup assay
# Design in all cases: key: below the threshold = too weak to quantify, mostly under pKd 3.1 to 4
# [1] = target: T1, APBA1_2, Q02410
# [2] = target: CASK, O14936
# [3] = target: DLG1_1, Q12959
# [4] = target: DLG4_3, P78352
# [5] = target: FRMPD2_1, Q68DX3
# [6] = target: FRMPD2_2, Q68DX3
# [7] = target: FRMPD2_3, Q68DX3
# [8] = target: GIPC2, Q8TF65
# [9] = target: GORASP1, Q9BQQ3
# [10] = target: T2, GRIP1_3, Q9Y3R0
# [11] = target: T3, GRIP1_4, Q9Y3R0
# [12] = target: GRIP2_6, Q9C0E4
# [13] = target: GRIP2_7, Q9C0E4
# [14] = target: Inadl_2, Q8NI35
# [15] = target: LAP2, Q96RT1
# [16] = target: T4, LIN7B, Q9HAP6
# [17] = target: LNX1_1, Q8TBB1
# [18] = target: LNX1_3, Q8TBB1
# [19] = target: MAGI1_2, Q96QZ7
# [20] = target: MAGI2_4, Q86UL8
# [21] = target: T5, MPP6, Q9NZW5
# [22] = target: T6, MPP7, Q5T2T1
# [23] = target: T7, NHERF3_4, Q5T2W1
# [24] = target: T8, PCLO, Q9Y6V0
# [25] = target: T9, PDZD2_2, O15018
# [26] = target: T10, PDZD7_3, Q9H5P4
# [27] = target: T11, RADIL, Q96JH8
# [28] = plain residues with an end cap or a label only (N-terminal biotin on a linker: ttds)
# [29] = plain residues with an end cap or a label only (N-terminal biotin on a linker: ahx)
# FRMPD2_1, Q68DX3, sequence (Q68DX3 770-861): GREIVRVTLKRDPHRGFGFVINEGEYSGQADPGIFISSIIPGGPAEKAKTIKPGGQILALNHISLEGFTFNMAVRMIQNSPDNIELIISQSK
# GIPC2, Q8TF65, sequence (Q8TF65 112-203): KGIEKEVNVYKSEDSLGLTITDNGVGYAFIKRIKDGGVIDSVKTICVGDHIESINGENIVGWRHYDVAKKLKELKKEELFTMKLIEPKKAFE
# MAGI2_4, Q86UL8, sequence (Q86UL8 772-865): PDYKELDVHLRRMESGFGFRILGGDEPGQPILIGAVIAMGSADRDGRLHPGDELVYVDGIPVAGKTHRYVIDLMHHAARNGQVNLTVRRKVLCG
# CASK, O14936, sequence (O14936 487-570): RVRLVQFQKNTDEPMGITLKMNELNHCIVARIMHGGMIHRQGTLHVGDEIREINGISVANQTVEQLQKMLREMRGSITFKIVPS
# LNX1_3, Q8TBB1, sequence (Q8TBB1 500-596): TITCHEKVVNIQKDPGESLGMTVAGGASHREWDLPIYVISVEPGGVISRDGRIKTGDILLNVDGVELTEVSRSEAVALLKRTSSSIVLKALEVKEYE
# FRMPD2_2, Q68DX3, sequence (Q68DX3 944-1038): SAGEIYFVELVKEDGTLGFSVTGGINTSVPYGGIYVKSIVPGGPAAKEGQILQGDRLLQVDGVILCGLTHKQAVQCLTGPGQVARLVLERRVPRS
# LNX1_1, Q8TBB1, sequence (Q8TBB1 261-371): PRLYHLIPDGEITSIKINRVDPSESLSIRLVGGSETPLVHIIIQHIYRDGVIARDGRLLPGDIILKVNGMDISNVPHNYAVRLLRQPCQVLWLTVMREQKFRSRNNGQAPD
# GORASP1, Q9BQQ3, sequence (Q9BQQ3 1-208): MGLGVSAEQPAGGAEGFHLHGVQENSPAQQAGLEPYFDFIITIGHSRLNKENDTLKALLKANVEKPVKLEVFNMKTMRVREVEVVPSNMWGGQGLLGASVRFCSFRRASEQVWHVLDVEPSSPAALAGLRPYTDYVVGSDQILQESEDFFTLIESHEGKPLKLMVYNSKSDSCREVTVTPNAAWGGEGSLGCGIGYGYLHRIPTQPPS
# GRIP2_7, Q9C0E4, sequence (Q9C0E4 934-1023): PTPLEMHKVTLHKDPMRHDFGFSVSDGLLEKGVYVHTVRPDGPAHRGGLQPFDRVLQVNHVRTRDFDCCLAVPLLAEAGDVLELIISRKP
# Inadl_2, Q8NI35, sequence (Q8NI35 238-335): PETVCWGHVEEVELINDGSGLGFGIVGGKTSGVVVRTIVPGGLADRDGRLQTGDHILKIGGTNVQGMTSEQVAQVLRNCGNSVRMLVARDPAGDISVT
# LAP2, Q96RT1, sequence (Q96RT1 other isoform, or with tags, fused parts or gaps): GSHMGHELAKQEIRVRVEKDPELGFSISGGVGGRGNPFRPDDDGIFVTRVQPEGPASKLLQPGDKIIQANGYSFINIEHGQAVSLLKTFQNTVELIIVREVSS
# DLG4_3, P78352, sequence (P78352 306-403): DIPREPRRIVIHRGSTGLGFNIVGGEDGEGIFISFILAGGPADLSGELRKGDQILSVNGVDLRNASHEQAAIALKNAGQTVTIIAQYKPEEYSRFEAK
# GRIP2_6, Q9C0E4, sequence (Q9C0E4 648-740): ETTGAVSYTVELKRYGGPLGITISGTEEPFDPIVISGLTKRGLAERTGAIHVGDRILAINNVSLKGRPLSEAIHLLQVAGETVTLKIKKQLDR
# FRMPD2_3, Q68DX3, sequence (Q68DX3 1073-1166): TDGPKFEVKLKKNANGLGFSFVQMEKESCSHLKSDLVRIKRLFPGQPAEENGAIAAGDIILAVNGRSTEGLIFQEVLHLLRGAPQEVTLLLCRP
# MAGI1_2, Q96QZ7, sequence (Q96QZ7 456-580): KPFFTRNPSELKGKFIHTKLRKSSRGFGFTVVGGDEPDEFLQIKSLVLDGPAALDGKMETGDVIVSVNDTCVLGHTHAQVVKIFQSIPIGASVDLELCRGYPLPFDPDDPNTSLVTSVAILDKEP
binder,measurement,setting,value
"IQREDQETAV [DGKZ, Q13574]",pKd,[1]; [28],4.2
same,pKd,[2]; [28],below the threshold
same,pKd,[3]; [28],4.73
same,pKd,[4]; [28],3.84
same,pKd,[5]; [28],below the threshold
same,pKd,[6]; [28],4.93
same,pKd,[7]; [28],3.71
same,pKd,[8]; [28],3.67
same,pKd,[9]; [28],below the threshold
same,pKd,[10]; [28],below the threshold
same,pKd,[11]; [28],below the threshold
same,pKd,[12]; [28],below the threshold
same,pKd,[13]; [28],below the threshold
same,pKd,[14]; [28],below the threshold
same,pKd,[15]; [28],4.54
same,pKd,[16]; [28],4.09
same,pKd,[17]; [28],below the threshold
same,pKd,[18]; [28],below the threshold
same,pKd,[19]; [28],below the threshold
same,pKd,[20]; [28],below the threshold
same,pKd,[21]; [28],below the threshold
same,pKd,[22]; [28],below the threshold
same,pKd,[23]; [28],below the threshold
same,pKd,[24]; [28],below the threshold
same,pKd,[25]; [28],5.1
same,pKd,[26]; [28],4.32
same,pKd,[27]; [28],below the threshold
"KTSAHHATFV [RGS12, O14924]",pKd,[1]; [29],4.87
same,pKd,[2]; [29],below the threshold
same,pKd,[3]; [29],3.93
same,pKd,[4]; [29],below the threshold
same,pKd,[5]; [29],below the threshold
same,pKd,[6]; [29],4.72
same,pKd,[7]; [29],below the threshold
same,pKd,[8]; [29],below the threshold
same,pKd,[9]; [29],3.86
same,pKd,[10]; [29],below the threshold
same,pKd,[11]; [29],below the threshold
same,pKd,[12]; [29],below the threshold
same,pKd,[13]; [29],3.72
same,pKd,[14]; [29],below the threshold
same,pKd,[15]; [29],4.34
same,pKd,[16]; [29],below the threshold
same,pKd,[17]; [29],4.21
same,pKd,[18]; [29],below the threshold
same,pKd,[19]; [29],4.03
same,pKd,[20]; [29],4.13
same,pKd,[21]; [29],below the threshold
same,pKd,[22]; [29],below the threshold
same,pKd,[23]; [29],below the threshold
same,pKd,[24]; [29],below the threshold
same,pKd,[25]; [29],5.04
same,pKd,[26]; [29],4.31
same,pKd,[27]; [29],5.28
"SPLHSLETSL [ATP2B1, P20020]",pKd,[1]; [28],3.93
same,pKd,[2]; [28],below the threshold
same,pKd,[3]; [28],4.12
same,pKd,[4]; [28],4.01
same,pKd,[5]; [28],below the threshold
same,pKd,[6]; [28],3.48
same,pKd,[7]; [28],below the threshold
same,pKd,[8]; [28],3.88
same,pKd,[9]; [28],3.61
same,pKd,[10]; [28],below the threshold
same,pKd,[11]; [28],below the threshold
same,pKd,[12]; [28],below the threshold
same,pKd,[13]; [28],below the threshold
same,pKd,[14]; [28],below the threshold
same,pKd,[15]; [28],3.8
same,pKd,[16]; [28],4.22
same,pKd,[17]; [28],below the threshold
same,pKd,[18]; [28],below the threshold
same,pKd,[19]; [28],3.78
same,pKd,[20]; [28],3.48
same,pKd,[21]; [28],below the threshold
same,pKd,[22]; [28],below the threshold
same,pKd,[23]; [28],3.94
same,pKd,[24]; [28],below the threshold
same,pKd,[25]; [28],below the threshold
same,pKd,[26]; [28],4.63
same,pKd,[27]; [28],below the threshold
"SSSNSEDTEM [NHERF3, Q5T2W1]",pKd,[1]; [29],below the threshold
same,pKd,[2]; [29],below the threshold
same,pKd,[3]; [29],below the threshold
same,pKd,[4]; [29],below the threshold
same,pKd,[5]; [29],below the threshold
same,pKd,[6]; [29],below the threshold
same,pKd,[7]; [29],below the threshold
same,pKd,[8]; [29],below the threshold
same,pKd,[9]; [29],below the threshold
same,pKd,[10]; [29],below the threshold
same,pKd,[11]; [29],below the threshold
same,pKd,[12]; [29],below the threshold
same,pKd,[13]; [29],below the threshold
same,pKd,[14]; [29],below the threshold
same,pKd,[15]; [29],below the threshold
same,pKd,[16]; [29],below the threshold
same,pKd,[17]; [29],below the threshold
same,pKd,[18]; [29],below the threshold
same,pKd,[19]; [29],below the threshold
same,pKd,[20]; [29],below the threshold
same,pKd,[21]; [29],below the threshold
same,pKd,[22]; [29],below the threshold
same,pKd,[23]; [29],below the threshold
same,pKd,[24]; [29],below the threshold
same,pKd,[25]; [29],below the threshold
same,pKd,[26]; [29],below the threshold
same,pKd,[27]; [29],below the threshold
"RNCSTNDSLL [ADRB2, P07550]",pKd,[1]; [29],below the threshold
same,pKd,[2]; [29],below the threshold
same,pKd,[3]; [29],below the threshold
same,pKd,[4]; [29],below the threshold
same,pKd,[5]; [29],below the threshold
same,pKd,[6]; [29],below the threshold
same,pKd,[7]; [29],below the threshold
same,pKd,[8]; [29],below the threshold
same,pKd,[9]; [29],below the threshold
same,pKd,[10]; [29],below the threshold
same,pKd,[11]; [29],below the threshold
same,pKd,[12]; [29],below the threshold
same,pKd,[13]; [29],below the threshold
same,pKd,[14]; [29],below the threshold
same,pKd,[15]; [29],below the threshold
same,pKd,[16]; [29],below the threshold
same,pKd,[17]; [29],below the threshold
same,pKd,[18]; [29],below the threshold
same,pKd,[19]; [29],below the threshold
same,pKd,[20]; [29],3.55
same,pKd,[21]; [29],below the threshold
same,pKd,[22]; [29],below the threshold
same,pKd,[23]; [29],3.54
same,pKd,[24]; [29],below the threshold
same,pKd,[25]; [29],below the threshold
same,pKd,[26]; [29],3.57
same,pKd,[27]; [29],below the threshold
